Test results: patent US20170260274A1 (LUTANA, published 2017)

Key:
[1] = target: T1, epidermal growth factor receptor (EGFR) (human, UniProt P00533 25-1210); assay: cell-based or functional assay
[2] = target: T1, epidermal growth factor receptor (EGFR); assay: flow cytometry, equilibrium binding on EGFR-expressing A431 cells (apparent KD)
Method: Detection of bound antibody or immunoRNase was performed using murine anti-c-myc monoclonal antibody clone 9E10 (Roche, Penzberg, Germany) and goat-anti-mouse fluorescein isothiocyanate (FITC) conjugate (Jackson ImmunoResearch, Suffolk, UK). Fluorescence of stained cells was measured on a FACS Canto II flow cytometer (Becton Dickinson) using the FACS Diva Software (Becton Dickinson). Background fluorescence was substracted from measured median fluorescence and relative affinities were calculated by nonlinear regression using GraphPad Prism 5.0 (GraphPad Software, La Jolla, Calif., USA).

Binder | IC50 (nM), cell viability, A431 [1] [nM] | IC50 (nM), cell viability, HNO97 [1] [nM] | IC50 (nM), cell viability, HNO211 [1] [nM] | IC50 (nM), cell viability, HNO410 [1] [nM] | Kd [2] [nM]
Ranpirnase-GS-scFv (other, Q* at position 1 of SEQ ID NO:4 stands for a pyroglutamate (as printed for Ranpirnase), also called Ranpimase-GS-scFv; immunoRNase Ranpirnase-GS-scFv; not shown: C-terminal c-myc tag; C-terminal hexahistidine tag) QDWLTFQKKHITNTRDVDCDNIMSTNLFHCKDKNTFIYSRPEPVKAICKGIIASKNVLTTSEFYLSDCNVTSRPCKYKLKKSTNKFCVTCENQAPVHFVGVGSCGGGGSGGGGSGGGGSEVQLVESGGGLVQPGGSLRLSCAASGFSLTNYGVHWVRQAPGKGLEWLGVIWSGGNTDYNTPFTSRFTISRDNSKNTLYLQMNSLRAEDTAVYYCARALTYYDYEFAYWGQGTTVTVSSGGGGSGGGGSGGGGSDIQLTQSPSFLSASVGDRVTITCRASQSIGTNIHWYQQKPGKAPKLLIKYASESISGVPSRFSGSGSGTEFTLTISSLQPEDFATYYCQQNNNWPTTFGAGTKLEIKR | > 3620 | 1260 | 1420 | 2520 | 14.7
humanized anti-epidermal growth factor receptor (EGFR) scFv IZI08 (scFv, Expressed in E. coli periplasm, monomer purified by SEC; also called anti-EGFR scFv; anti-EGFR scFv IZI08; not shown: C-terminal c-myc tag; C-terminal hexahistidine tag) scFv: EVQLVESGGGLVQPGGSLRLSCAASGFSLTNYGVHWVRQAPGKGLEWLGVIWSGGNTDYNTPFTSRFTISRDNSKNTLYLQMNSLRAEDTAVYYCARALTYYDYEFAYWGQGTTVTVSSGGGGSGGGGSGGGGSDIQLTQSPSFLSASVGDRVTITCRASQSIGTNIHWYQQKPGKAPKLLIKYASESISGVPSRFSGSGSGTEFTLTISSLQPEDFATYYCQQNNNWPTTFGAGTKLEIKR | > 3620 | > 3620 | > 3620 | > 3620 | 9.6
